These results are taken from the supplement of paper PMC11246515.

This series in a line: total protein half-life in vivo (active degradation + dilution); higher = more stable protein.
[1] abbreviates: E. coli NCM3722 delta-clpP delta-lon delta-hslV, growth: N-lim chemostat, doubling time 6 h.
The mark [2] stands for this setting: E. coli NCM3722 delta-clpP, growth: N-lim chemostat, doubling time 6 h.
The mark [3] stands for this setting: E. coli NCM3722 delta-hslV, growth: N-lim chemostat, doubling time 6 h.
Setting [4] is: E. coli NCM3722 delta-lon, growth: N-lim chemostat, doubling time 6 h.
[5] abbreviates: E. coli NCM3722 delta-smpB, growth: N-lim chemostat, doubling time 6 h.
The mark [6] stands for this setting: wild type E. coli NCM3722, growth: C-lim chemostat, doubling time 3 h.
[7] abbreviates: wild type E. coli NCM3722, growth: C-lim chemostat, doubling time 6 h.
[8] abbreviates: wild type E. coli NCM3722, growth: C-lim chemostat, doubling time 12 h.
The mark [9] stands for this setting: wild type E. coli NCM3722, growth: N-lim chemostat, doubling time 6 h.
The mark [10] stands for this setting: wild type E. coli NCM3722, growth: N-lim chemostat, doubling time 12 h.
Where [11] appears, read: wild type E. coli NCM3722, growth: P-lim chemostat, doubling time 6 h.
Where [12] appears, read: wild type E. coli NCM3722, growth: P-lim chemostat, doubling time 12 h.

± gives the standard deviation of the averaged measurements.

As for “MTKHYDYIAIGGGSGGIASINRAAMYGQKCALIEAKELGGTCVNVGCVPKKVMWHAAQIREAIHMYGPDYGFDTTINKFNWETLIASRTAYIDRIHTSYENVLGKNNVDVIKGFARFVDAKTLEVNGETITADHILIATGGRPSHPDIPGVEYGIDSDGFFALPALPERVAVVGAGYIAVELAGVINGLGAKTHLFVRKHAPLRSFDPMISETLVEVMNAEGPQLHTNAIPKAVVKNTDGSLTLELEDGRSETVDCLIWAIGREPANDNINLEAAGVKTNEKGYIVVDKYQNTNIEGIYAVGDNTGAVELTPVAVAAGRRLSERLFNNKPDEHLDYSNIPTVVFSHPPIGTVGLTEPQAREQYGDDQVKVYKSSFTAMYTAVTTHRQPCRMKLVCVGSEEKIVGIHGIGFGMDEMLQGFAVALKMGATKKDFDNTVAIHPTAAEEFVTMR”, the “total protein half-life in vivo” value is, setting by setting: under setting [1], 5.12 ± 0.23 h; under setting [2], 5.46 ± 0.48 h; under setting [3], 4.85 ± 0.18 h; under setting [4], 5.81 ± 0.49 h; under setting [5], 4.64 ± 0.066 h; under setting [6], 3.02 ± 0.17 h. Further, the “total protein half-life in vivo” value came out at 6.27 ± 0.5 h under setting [7]; 11.5 ± 0.61 h under setting [8]; 5.08 ± 0.14 h under setting [9]; 8.33 ± 0.71 h under setting [10]; 6.07 ± 0.31 h under setting [11]; 13 ± 0.92 h under setting [12].
As to “MGFTTRVKSEASEKKPFNFALFWDKYGTFFILAIIVAIFGSLSPEYFLTTNNITQIFVQSSVTVLIGMGEFFAILVAGIDLSVGAILALSGMVTAKLMLAGVDPFLAAMIGGVLVGGALGAINGCLVNWTGLHPFIITLGTNAIFRGITLVISDANSVYGFSFDFVNFFAASVIGIPVPVIFSLIVALILWFLTTRMRLGRNIYALGGNKNSAFYSGIDVKFHILVVFIISGVCAGLAGVVSTARLGAAEPLAGMGFETYAIASAIIGGTSFFGGKGRIFSVVIGGLIIGTINNGLNILQVQTYYQLVVMGGLIIAAVALDRLISK”, the “total protein half-life in vivo” value under setting [3] was 5.22 h and the “total protein half-life in vivo” value under setting [7] came out at 5.91 h.
As for “MPKRTDIKSILILGAGPIVIGQACEFDYSGAQACKALREEGYRVILVNSNPATIMTDPEMADATYIEPIHWEVVRKIIEKERPDAVLPTMGGQTALNCALELERQGVLEEFGVTMIGATADAIDKAEDRRRFDVAMKKIGLETARSGIAHTMEEALAVAADVGFPCIIRPSFTMGGSGGGIAYNREEFEEICARGLDLSPTKELLIDESLIGWKEYEMEVVRDKNDNCIIVCSIENFDAMGIHTGDSITVAPAQTLTDKEYQIMRNASMAVLREIGVETGGSNVQFAVNPKNGRLIVIEMNPRVSRSSALASKATGFPIAKVAAKLAVGYTLDELMNDITGGRTPASFEPSIDYVVTKIPRFNFEKFAGANDRLTTQMKSVGEVMAIGRTQQESLQKALRGLEVGATGFDPKVSLDDPEALTKIRRELKDAGADRIWYIADAFRAGLSVDGVFNLTNIDRWFLVQIEELVRLEEKVAEVGITGLNADFLRQLKRKGFADARLAKLAGVREAEIRKLRDQYDLHPVYKRVDTCAAEFATDTAYMYSTYEEECEANPSTDREKIMVLGGGPNRIGQGIEFDYCCVHASLALREDGYETIMVNCNPETVSTDYDTSDRLYFEPVTLEDVLEIVRIEKPKGVIVQYGGQTPLKLARALEAAGVPVIGTSPDAIDRAEDRERFQHAVERLKLKQPANATVTAIEMAVEKAKEIGYPLVVRPSYVLGGRAMEIVYDEADLRRYFQTAVSVSNDAPVLLDHFLDDAVEVDVDAICDGEMVLIGGIMEHIEQAGVHSGDSACSLPAYTLSQEIQDVMRQQVQKLAFELQVRGLMNVQFAVKNNEVYLIEVNPRAARTVPFVSKATGVPLAKVAARVMAGKSLAEQGVTKEVIPPYYSVKEVVLPFNKFPGVDPLLGPEMRSTGEVMGVGRTFAEAFAKAQLGSNSTMKKHGRALLSVREGDKERVVDLAAKLLKQGFELDATHGTAIVLGEAGINPRLVNKVHEGRPHIQDRIKNGEYTYIINTTSGRRAIEDSRVIRRSALQYKVHYDTTLNGGFATAMALNADATEKVISVQEMHAQIK”, the “total protein half-life in vivo” value under setting [1] amounted to 5.02 ± 0.092 h; the “total protein half-life in vivo” value under setting [2] is 4.45 ± 0.4 h; the “total protein half-life in vivo” value under setting [3] is 4.581 ± 0.016 h; the “total protein half-life in vivo” value under setting [4] came out at 5 ± 0.33 h; the “total protein half-life in vivo” value under setting [5] is 4.81 ± 0.32 h; the “total protein half-life in vivo” value under setting [6] was found to be 3.11 ± 0.25 h. Moreover, the “total protein half-life in vivo” value amounted to 5.75 ± 0.28 h under setting [7]; 10.6 ± 0.13 h under setting [8]; 4.65 ± 0.3 h under setting [9]; 8.22 ± 0.41 h under setting [10]; 6.2 ± 0.28 h under setting [11]; 12.6 ± 0.28 h under setting [12].
With “MMVQHLKRRPLSRYLKDFKHSQTHCAHCRKLLDRITLVRDGKIVNKIEISRLDTLLDENGWQTEQKSWAALCRFCGDLHCKTQSDFFDIIGFKQFLFEQTEMSPGTVREYVVRLRRLGNHLHEQNISLDQLQDGFLDEILAPWLPTTSTNNYRIALRKYQHYQRQTCTRLVQKSSSLPSSDIY”, the “total protein half-life in vivo” value by setting is: under setting [1], 6.005 ± 0.037 h; under setting [6], 0.828 ± 0.34 h; under setting [8], 1.23 h.
As for “MGDSILSQAEIDALLNGDSEVKDEPTASVSGESDIRPYDPNTQRRVVRERLQALEIINERFARHFRMGLFNLLRRSPDITVGAIRIQPYHEFARNLPVPTNLNLIHLKPLRGTGLVVFSPSLVFIAVDNLFGGDGRFPTKVEGREFTHTEQRVINRMLKLALEGYSDAWKAINPLEVEYVRSEMQVKFTNITTSPNDIVVNTPFHVEIGNLTGEFNICLPFSMIEPLRELLVNPPLENSRNEDQNWRDNLVRQVQHSQLELVANFADISLRLSQILKLNPGDVLPIEKPDRIIAHVDGVPVLTSQYGTLNGQYALRIEHLINPILNSLNEEQPK”, the “total protein half-life in vivo” value reads like this: under setting [1], 4.44 ± 0.11 h; under setting [6], 2.17 ± 0.39 h; under setting [7], 3.96 ± 0.9 h; under setting [8], 6.79 ± 0.98 h.
With “MEQAHTQLIAQLNERILAADNTPLYIKFAETVKNAVRSGVLEHGNILPGERDLSQLTGVSRITVRKAMQALEEEGVVTRSRGYGTQINNIFEYSLKEARGFSQQVVLRGKKPDTLWVNKRVVKCPEEVAQQLAVEAGSDVFLLKRIRYVDEEAVSIEESWVPAHLIHDVDAIGISLYDYFRSQHIYPQRTRSRVSARMPDAEFQSHIQLDSKIPVLVIKQVALDQQQRPIEYSISHCRSDLYVFVCEE [P0ACM5]”, the “total protein half-life in vivo” value amounted to 5.72 ± 0.0036 h under setting [1]; 4.14 ± 0.2 h under setting [3]; 4.55 ± 0.12 h under setting [4]; 3.91 ± 0.15 h under setting [5]; 2.75 ± 0.084 h under setting [6]; 4.84 ± 0.37 h under setting [7]. The “total protein half-life in vivo” value was determined as 8.6 ± 0.18 h under setting [8]; 4.04 ± 0.17 h under setting [9]; 6.99 ± 0.2 h under setting [10]; 4.28 ± 0.053 h under setting [11]; 7.99 ± 0.19 h under setting [12].
Take “MAEKFIKHTGLVVPLDAANVDTDAIIPKQFLQKVTRTGFGAHLFNDWRFLDEKGQQPNPDFVLNFPQYQGASILLARENFGCGSSREHAPWALTDYGFKVVIAPSFADIFYGNSFNNQLLPVKLSDAEVDELFALVKANPGIHFDVDLEAQEVKAGEKTYRFTIDAFRRHCMMNGLDSIGLTLQHDDAIAAYEAKQPAFMN”: the “total protein half-life in vivo” value is, setting by setting: under setting [1], 3.91 ± 0.1 h; under setting [2], 1.33 ± 0.047 h; under setting [3], 2.363 ± 0.02 h; under setting [4], 3.85 ± 0.072 h; under setting [5], 2.306 ± 0.018 h; under setting [6], 1.96 ± 0.16 h. For the same sequence, the “total protein half-life in vivo” value was 3.02 ± 0.097 h under setting [7]; 3.926 ± 0.038 h under setting [8]; 2.54 ± 0.17 h under setting [9]; 4.05 ± 1.3 h under setting [10]; 2.1 ± 0.28 h under setting [11]; 5.15 ± 0.8 h under setting [12].
